Paper PMC9372883 (Antibody Therapeutics, 2022)
Values belong to the binder of their own block, whether it stands above or below them.

Biological target: T1, P9-CCR7 (human, UniProt P32248 25-378)
T1 sequence: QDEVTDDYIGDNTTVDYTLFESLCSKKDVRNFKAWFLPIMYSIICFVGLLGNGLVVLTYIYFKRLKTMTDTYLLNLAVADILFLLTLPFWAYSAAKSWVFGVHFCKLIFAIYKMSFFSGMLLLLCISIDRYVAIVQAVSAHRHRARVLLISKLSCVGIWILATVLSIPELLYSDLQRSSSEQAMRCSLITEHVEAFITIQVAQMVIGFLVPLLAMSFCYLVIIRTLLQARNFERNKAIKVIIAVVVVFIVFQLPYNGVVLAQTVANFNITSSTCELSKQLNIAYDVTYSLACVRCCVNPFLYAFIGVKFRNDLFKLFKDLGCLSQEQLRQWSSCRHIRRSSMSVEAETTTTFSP
Assay: ELISA

Kd: 0.011 µM
B1: CCL21-H6-Flag (ligand)
chain: SDGGAQDCCLKYSQRKIPAKVVRSYRKQEPSLGCSIPAILFLPRKRSQAELCADPKELWVQQLMQHLDKTPSPQKPAQGCRKDRGASKTGKKGKGSKGCKRTERSQTPKGP

Kd: 0.019 µM
B2: CCL19-H6-Flag (ligand)
chain: GTNDAEDCCLSVTQKPIPGYIVRNFHYLLIKDGCRVPAVVFTTLRGRQLCAPPDQPWVERIIQRLQRTSAKMKRRSS
